From publication PMC3202870

Target: PA63, the cell-associated furin-cleavage product of Bacillus anthracis protective antigen (PA83) (Bacillus anthracis)
Test: SDS-PAGE and phosphoimaging of 125I-PA recovered from cells

Q: For “PA63, the cell-associated furin-cleavage product of Bacillus anthracis protective antigen (PA83) (domain or fragment)”, which stoichiometry N is on record?
A: 7
